Test results published in patent US20250361274A1, “PEPTIDE AND PEPTIDE-CONTAINING AGENT” (PEPTIDREAM INC., priority 2022, published 2025).
Numbered stars: 1 amine (or outer) side, 2 acyl side, 3 side chain; on linkers, the order of the positions; unused ones are H or OH. Bridge positions count the residues as written; N and C are the ends. Square brackets hold non-standard residues; d marks the D form. Side chains are listed from the residue outwards. Ends that are not written are not given here. Peptide text beside a SMILES is read from it. * marks the point of attachment. KCOpipzaa = N6-(4-(carboxymethyl)piperazine-1-carbonyl)-L-lysine, O=C(NCCCC[C@H](N[*:1])C(=O)[*:2])N1CCN(CC(=O)[*:3])CC1; F42Py = (S)-2-amino-3-[4-(pyridin-2-yl)phenyl]propanoic acid, O=C([C@H](Cc1ccc(-c2ccccn2)cc1)N[*:1])[*:2]; 3Pal(6-Ph) = N[C@@H](Cc1ccc(-c2ccccc2)nc1)C(=O)O; Phe(4-COOH) = N[C@@H](Cc1ccc(C(=O)O)cc1)C(=O)O; Piperazinyl(4-CH2COOH) = O=C(O)CN1CCN(*)CC1; Bip = N[C@@H](Cc1ccc(-c2ccccc2)cc1)C(=O)O; Gly(4-THP) = N[C@H](C(=O)O)C1CCOCC1; Hyp = O=C(O)[C@@H]1C[C@@H](O)CN1; NMeF = CN[C@@H](Cc1ccccc1)C(=O)O; 4Pal = N[C@@H](Cc1ccncc1)C(=O)O; Aad = N[C@@H](CCCC(=O)O)C(=O)O; Cha = N[C@@H](CC1CCCCC1)C(=O)O; CO = O=C([*:1])[*:2]; βAla = NCCC(=O)O

Experiments:
BMP7 = molecular target: T1, BMP7 (Homo sapiens, UniProt P18075); test: BMP7 signal transduction inhibitory activity: SMAD1 phosphorylation by BMP7 stimulus, A549 cells; type: cell-based; details: for aLIZA BMP7 (10 nM) % inh: peptide conc. in assay 100, 300, 1000 nM, class symbols; for aLISA BMP7 (10 nM) % inh: peptide conc. in assay 1, 10, 100 nM; for aLISA BMP7: inhibition of SMAD1 phosphorylation by BMP7 stimulus, A549 cells
T1 sequence (P18075 293-431): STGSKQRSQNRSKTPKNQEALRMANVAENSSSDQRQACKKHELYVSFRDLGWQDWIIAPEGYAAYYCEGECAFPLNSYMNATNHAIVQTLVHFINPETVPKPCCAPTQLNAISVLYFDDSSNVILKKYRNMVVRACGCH
How it was run: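 A549 cells were stimulated with 10 nM BMP7, and peptide inhibition of signalling was measured as SMAD1 phosphorylation. Peptides were tested at three concentrations, in sets ranging from 1–100 nM to 100–1,000 nM, or as eight-point 1/3 dilution series starting at 100 nM or 1,000 nM.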

BMP4 = molecular target: T2, BMP4 (Homo sapiens, UniProt P12644); test: BMP4 signal transduction inhibitory activity: SMAD1 phosphorylation by BMP4 stimulus, AlphaLISA SureFire, A549 cells; type: cell-based; details: for aLIZA BMP4 (0.2 nM) % inh: peptide conc. in assay 0.02, 0.2, 2 nM, class symbols; for aLISA BMP4 (0.2 nM) % inh: peptide conc. in assay 0.2, 2, 20 nM; for aLISA BMP4: inhibition of SMAD1 phosphorylation by BMP4 stimulus, A549 cells
T2 sequence (P12644 293-408): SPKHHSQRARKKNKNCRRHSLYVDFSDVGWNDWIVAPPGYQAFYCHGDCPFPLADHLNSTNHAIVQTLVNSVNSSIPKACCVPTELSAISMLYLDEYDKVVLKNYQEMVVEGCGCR

[1] = AlphaLISA, class by peptide concentration zone
[2] = peptides of Synthesis 2, classes A-D, ND
[3] = peptides of Synthesis 2, classes A-C, ND

CC(C)[C@@H]1NC(=O)[C@H](Cc2ccc(C(=O)O)cc2)NC(=O)[C@H](C(C)C)NC(=O)[C@H](CCCNC(=N)N)NC(=O)[C@H](CCC(=O)O)NC(=O)CSC[C@@H](C(=O)NCC(N)=O)NC(=O)[C@H](CO)NC(=O)[C@H](Cc2ccc(C(=O)O)cc2)NC(=O)[C@H](Cc2ccc(C(=O)O)cc2)NC(=O)[C@H](Cc2ccc(O)cc2)NC(=O)[C@H](Cc2ccc(-c3ccccc3)cc2)NC(=O)[C@@H]2C[C@@H](O)CN2C(=O)[C@H](Cc2ccc(O)cc2)NC(=O)[C@H](CCCCNC(=O)N2CCN(CC(=O)O)CC2)NC(=O)[C@H](Cc2ccc(-c3ccccc3)nc2)NC(=O)[C@H](CCCNC(=N)N)NC(=O)[C@H](CCCCNC(=O)N2CCN(CC(=O)O)CC2)NC1=O [compound 277] ({CH2CO}-ERV[Phe(4-COOH)]VK([CO-Piperazinyl(4-CH2COOH)])R[3Pal(6-Ph)]K([CO-Piperazinyl(4-CH2COOH)])Y[Hyp][Bip]Y[Phe(4-COOH)][Phe(4-COOH)]SCG-NH2; thioether N-17)
aLIZA BMP7 (10 nM) % inh (BMP7; BMP7 10 nM stimulus): H (showed less than 30% of inhibitory activity in 300 nM-addition zone and showed 30% or more of inhibitory activity in 1,000 nM-addition zone)
aLIZA BMP4 (0.2 nM) % inh (BMP4; BMP4 0.2 nM stimulus): B (showed less than 30% of inhibitory activity in 0.02 nM-addition zone and showed 30% or more of inhibitory activity in 0.2 nM-addition zone)

408 (FG[NMeF]G[Bip]GDE[Cha][Aad][NMeF]L[Phe(4-COOH)]C-NH2) [compound 408]
aLISA BMP7 (10 nM) % inh (BMP7; BMP7 10 nM stimulus): C (showed less than 30% of inhibitory activity in a zone to which the peptide was added in an amount of 1 nM and showed 30% or more of inhibitory activity in 10 nM-addition zone)
aLISA BMP4 (0.2 nM) % inh (BMP4; BMP4 0.2 nM stimulus): ND (the inhibitory activity was less than 30% at the maximum concentration evaluated)

327 (FG[NMeF]G[F42Py]GDD[Cha]A[NMeF]LHCG-NH2; not fully specified) [compound 327]
aLISA BMP7 (10 nM) % inh (BMP7; SMAD1 phosphorylation, BMP7 10 nM): D (showed less than 30% of inhibitory activity in 10 nM-addition zone and showed 30% or more of inhibitory activity in 100 nM-addition zone)
aLISA BMP4 (0.2 nM) % inh (BMP4; SMAD1 phosphorylation, BMP4 0.2 nM): A (showed less than 30% of inhibitory activity in 2 nM-peptide-addition zone and showed 30% or more of inhibitory activity in 20 nM-addition zone)

289 (ERV[Phe(4-COOH)][Gly(4-THP)][KCOpipzaa]R[3Pal(6-Ph)][KCOpipzaa]Y[Hyp][Bip][4Pal][Phe(4-COOH)][Phe(4-COOH)]SCG-NH2; not fully specified (N-terminus, bridges); also: cyclic peptide, ring not given here) [compound 289]
aLIZA BMP7 (10 nM) % inh (BMP7; BMP7 10 nM stimulus): ND (the inhibitory activity was less than 30% at the maximum concentration evaluated)
aLIZA BMP4 (0.2 nM) % inh (BMP4; BMP4 0.2 nM stimulus): C (showed less than 30% of inhibitory activity in 0.2 nM-addition zone and showed 30% or more of inhibitory activity in 2 nM-addition zone)

42 (Ac-AKVYVDK(Ac)[Bip]PYP[Bip]Y[Phe(4-COOH)][Phe(4-COOH)]SCG-NH2; thioether (positions not given here); not fully specified (bridges)) [compound 42]
aLISA BMP7 (BMP7; [1]): ND (the inhibitory activity was less than 30% at the maximum concentration evaluated)
aLISA BMP4 (BMP4; [1]): A (showed an inhibitory activity of 50% or more in a zone to which the peptide was added to in an amount of 0.2 nM)

96 ({CH2CO}-ERVYVDR[3Pal(6-Ph)]SYP[Bip]Y[Phe(4-COOH)][Phe(4-COOH)]SC[βAla][dE]-OH; thioether N-17; not fully specified) [compound 96]
aLISA BMP7 (BMP7; [2]): C (showed less than 50% of inhibitory activity in 10 nM-addition zone and showed 50% or more of inhibitory activity in 100 nM-addition zone)
aLISA BMP4 (BMP4; [3]): A (showed an inhibitory activity of 50% or more in a zone to which the peptide was added to in an amount of 0.2 nM)

99 ({CH2CO}-E[KCOpipzaa]VYVDR[Bip]SYP[Bip]Y[Phe(4-COOH)][Phe(4-COOH)]SC[βAla][dE]-OH; thioether N-17; not fully specified) [compound 99]
aLISA BMP7 (BMP7; [2]): C (showed less than 50% of inhibitory activity in 10 nM-addition zone and showed 50% or more of inhibitory activity in 100 nM-addition zone)
aLISA BMP4 (BMP4; [3]): A (showed an inhibitory activity of 50% or more in a zone to which the peptide was added to in an amount of 0.2 nM)
